T1: 34S-AIMP2 (UniProt Q13155 1-320)
T1 sequence (looked up): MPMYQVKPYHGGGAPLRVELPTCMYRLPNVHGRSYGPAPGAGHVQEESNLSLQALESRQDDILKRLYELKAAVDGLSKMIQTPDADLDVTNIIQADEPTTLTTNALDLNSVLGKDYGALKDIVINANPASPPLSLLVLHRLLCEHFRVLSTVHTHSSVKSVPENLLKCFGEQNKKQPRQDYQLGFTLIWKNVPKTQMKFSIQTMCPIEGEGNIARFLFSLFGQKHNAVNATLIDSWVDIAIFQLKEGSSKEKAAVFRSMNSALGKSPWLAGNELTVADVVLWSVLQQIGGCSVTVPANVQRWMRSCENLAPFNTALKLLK

T2: His-CRS (UniProt P49589 1-748)
T2 construct: not shown: His tag
T2 sequence (looked up): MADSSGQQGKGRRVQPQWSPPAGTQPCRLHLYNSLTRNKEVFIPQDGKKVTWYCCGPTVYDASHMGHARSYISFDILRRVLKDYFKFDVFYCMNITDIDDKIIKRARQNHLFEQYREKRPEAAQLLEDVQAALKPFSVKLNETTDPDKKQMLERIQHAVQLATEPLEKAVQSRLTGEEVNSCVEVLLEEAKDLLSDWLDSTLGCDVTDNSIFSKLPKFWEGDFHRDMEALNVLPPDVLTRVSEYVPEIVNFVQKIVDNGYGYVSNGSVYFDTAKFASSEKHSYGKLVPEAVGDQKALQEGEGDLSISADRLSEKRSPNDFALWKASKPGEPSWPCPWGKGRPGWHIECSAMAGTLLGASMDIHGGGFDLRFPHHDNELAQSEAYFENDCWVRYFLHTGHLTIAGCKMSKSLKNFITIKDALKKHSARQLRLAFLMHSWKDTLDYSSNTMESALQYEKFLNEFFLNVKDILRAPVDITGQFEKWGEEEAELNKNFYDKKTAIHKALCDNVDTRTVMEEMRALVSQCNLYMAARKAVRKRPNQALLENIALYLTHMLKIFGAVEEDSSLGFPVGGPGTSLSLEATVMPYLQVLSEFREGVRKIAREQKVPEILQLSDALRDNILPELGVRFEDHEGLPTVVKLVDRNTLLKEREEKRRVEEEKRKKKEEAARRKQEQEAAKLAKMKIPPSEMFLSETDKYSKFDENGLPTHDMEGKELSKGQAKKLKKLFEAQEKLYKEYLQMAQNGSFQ

T3: His-AIMP1 (UniProt Q12904 1-312, limits assumed)
T3 construct: not shown: His tag
T3 sequence (looked up): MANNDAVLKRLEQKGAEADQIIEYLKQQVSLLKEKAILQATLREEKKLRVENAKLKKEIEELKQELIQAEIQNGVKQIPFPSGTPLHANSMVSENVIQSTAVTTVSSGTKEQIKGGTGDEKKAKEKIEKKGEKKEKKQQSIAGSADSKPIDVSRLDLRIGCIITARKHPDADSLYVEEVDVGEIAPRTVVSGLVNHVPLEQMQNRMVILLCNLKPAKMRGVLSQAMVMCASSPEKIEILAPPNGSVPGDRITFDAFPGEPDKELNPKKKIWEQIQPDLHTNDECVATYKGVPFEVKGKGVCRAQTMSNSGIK

T4: His-GRS (UniProt P41250 55-739)
T4 construct: not shown: His tag
T4 sequence (looked up): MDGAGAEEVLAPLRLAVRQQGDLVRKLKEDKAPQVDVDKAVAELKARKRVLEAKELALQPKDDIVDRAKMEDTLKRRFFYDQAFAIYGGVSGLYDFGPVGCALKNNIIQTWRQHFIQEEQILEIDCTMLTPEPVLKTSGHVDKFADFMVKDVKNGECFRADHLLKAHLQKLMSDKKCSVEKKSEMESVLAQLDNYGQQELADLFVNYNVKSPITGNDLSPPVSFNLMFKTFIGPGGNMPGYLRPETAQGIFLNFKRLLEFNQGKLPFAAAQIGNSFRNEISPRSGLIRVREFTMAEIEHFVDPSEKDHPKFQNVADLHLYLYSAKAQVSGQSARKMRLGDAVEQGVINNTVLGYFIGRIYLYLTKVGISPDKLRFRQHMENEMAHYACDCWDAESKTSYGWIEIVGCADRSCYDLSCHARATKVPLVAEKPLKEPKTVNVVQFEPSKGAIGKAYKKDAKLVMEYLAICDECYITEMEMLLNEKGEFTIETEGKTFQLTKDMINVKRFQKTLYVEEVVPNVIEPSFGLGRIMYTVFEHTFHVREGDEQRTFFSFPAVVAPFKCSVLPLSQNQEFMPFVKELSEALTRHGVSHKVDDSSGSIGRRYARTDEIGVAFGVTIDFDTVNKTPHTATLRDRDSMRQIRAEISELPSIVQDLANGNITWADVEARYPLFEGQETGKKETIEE

T5: His-WRS (UniProt P23381 1-471, limits assumed)
T5 construct: not shown: His tag
T5 sequence (looked up): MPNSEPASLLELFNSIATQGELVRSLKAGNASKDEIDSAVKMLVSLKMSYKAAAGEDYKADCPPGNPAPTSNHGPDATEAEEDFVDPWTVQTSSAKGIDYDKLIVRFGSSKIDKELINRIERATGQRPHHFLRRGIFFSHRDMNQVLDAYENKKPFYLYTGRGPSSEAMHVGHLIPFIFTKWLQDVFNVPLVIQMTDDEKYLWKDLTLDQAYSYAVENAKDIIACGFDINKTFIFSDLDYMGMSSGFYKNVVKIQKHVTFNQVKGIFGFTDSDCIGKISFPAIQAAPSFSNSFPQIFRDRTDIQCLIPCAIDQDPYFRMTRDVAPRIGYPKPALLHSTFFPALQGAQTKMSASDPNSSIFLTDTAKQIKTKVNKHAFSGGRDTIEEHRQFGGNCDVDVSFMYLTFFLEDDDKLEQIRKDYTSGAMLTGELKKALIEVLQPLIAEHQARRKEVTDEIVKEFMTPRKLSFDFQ

T6: AIMP3 (Aminoacyl tRNA synthetase complex-interacting multifunctional protein 3) (Homo sapiens (Human), UniProt O43324 1-174, limits assumed)
T6 construct: also called AIMP3 단백질
T6 sequence: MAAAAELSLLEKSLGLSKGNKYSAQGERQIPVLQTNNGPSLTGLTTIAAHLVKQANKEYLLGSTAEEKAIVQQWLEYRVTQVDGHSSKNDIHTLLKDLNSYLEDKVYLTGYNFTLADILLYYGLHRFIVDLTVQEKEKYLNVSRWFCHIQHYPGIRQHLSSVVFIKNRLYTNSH

T7: 메티오닐 티알엔에이 합성효소 (methionyl-tRNA synthetase, MRS) (human, UniProt P56192 1-900)
T7 construct: Full-length protein; In the cross-reactivity ELISA two preparations were coated (His-MRS, MRS full) and the result is told only for 'MRS'; In the western blots and cell staining it is the endogenous MRS of H460, PANC-1 and SCK cells; In SPR it was on the chip as MRS+AIMP3 co-purified protein; also called His-MRS; MRS full
T7 sequence: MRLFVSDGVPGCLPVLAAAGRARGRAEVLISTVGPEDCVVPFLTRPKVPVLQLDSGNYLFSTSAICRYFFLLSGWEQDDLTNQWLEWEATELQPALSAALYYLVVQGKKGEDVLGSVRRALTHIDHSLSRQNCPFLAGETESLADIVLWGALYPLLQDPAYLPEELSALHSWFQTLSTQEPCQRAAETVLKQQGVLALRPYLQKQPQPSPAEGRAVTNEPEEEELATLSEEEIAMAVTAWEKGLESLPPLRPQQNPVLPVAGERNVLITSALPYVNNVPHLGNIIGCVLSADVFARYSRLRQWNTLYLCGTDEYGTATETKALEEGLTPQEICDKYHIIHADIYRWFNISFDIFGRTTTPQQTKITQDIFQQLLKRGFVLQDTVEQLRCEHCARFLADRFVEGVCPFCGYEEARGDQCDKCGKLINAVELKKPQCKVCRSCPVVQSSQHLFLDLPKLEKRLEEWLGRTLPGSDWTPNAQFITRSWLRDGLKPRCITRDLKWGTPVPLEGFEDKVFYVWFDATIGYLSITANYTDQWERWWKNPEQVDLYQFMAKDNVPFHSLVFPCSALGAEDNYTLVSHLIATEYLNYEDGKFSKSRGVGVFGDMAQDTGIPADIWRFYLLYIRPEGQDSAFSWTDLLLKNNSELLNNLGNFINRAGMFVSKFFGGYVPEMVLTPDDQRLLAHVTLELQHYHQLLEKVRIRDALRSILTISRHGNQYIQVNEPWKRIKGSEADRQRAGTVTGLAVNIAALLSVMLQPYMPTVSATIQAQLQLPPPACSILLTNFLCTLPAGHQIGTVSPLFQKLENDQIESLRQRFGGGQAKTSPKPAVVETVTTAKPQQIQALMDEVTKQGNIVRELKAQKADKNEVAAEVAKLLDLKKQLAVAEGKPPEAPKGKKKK


Legend:
[1] = biological target: T1, 34S-AIMP2; experiment: ELISA; protein coated at 1 μg/ml, OD 450 nm
[2] = biological target: T2, His-CRS; experiment: ELISA; protein coated at 1 μg/ml, OD 450 nm
[3] = biological target: T3, His-AIMP1; experiment: ELISA; protein coated at 1 μg/ml, OD 450 nm
[4] = biological target: T4, His-GRS; experiment: ELISA; protein coated at 1 μg/ml, OD 450 nm
[5] = biological target: T5, His-WRS; experiment: ELISA; protein coated at 1 μg/ml, OD 450 nm
[6] = biological target: T8, His-KRS (UniProt Q15046 1-597); experiment: ELISA; protein coated at 1 μg/ml, OD 450 nm
T8 construct: not shown: His tag

[7] = biological target: T6, AIMP3 (Aminoacyl tRNA synthetase …); experiment: SPR; AIMP3 on CM5 chip, antibody flowed at various concentrations
[8] = biological target: T7, 메티오닐 티알엔에이 합성효소 (methionyl-tRNA …); experiment: SPR; MRS+AIMP3 co-purified protein on CM5 chip, antibody flowed at various concentrations

T8 sequence (Q15046 whole entry): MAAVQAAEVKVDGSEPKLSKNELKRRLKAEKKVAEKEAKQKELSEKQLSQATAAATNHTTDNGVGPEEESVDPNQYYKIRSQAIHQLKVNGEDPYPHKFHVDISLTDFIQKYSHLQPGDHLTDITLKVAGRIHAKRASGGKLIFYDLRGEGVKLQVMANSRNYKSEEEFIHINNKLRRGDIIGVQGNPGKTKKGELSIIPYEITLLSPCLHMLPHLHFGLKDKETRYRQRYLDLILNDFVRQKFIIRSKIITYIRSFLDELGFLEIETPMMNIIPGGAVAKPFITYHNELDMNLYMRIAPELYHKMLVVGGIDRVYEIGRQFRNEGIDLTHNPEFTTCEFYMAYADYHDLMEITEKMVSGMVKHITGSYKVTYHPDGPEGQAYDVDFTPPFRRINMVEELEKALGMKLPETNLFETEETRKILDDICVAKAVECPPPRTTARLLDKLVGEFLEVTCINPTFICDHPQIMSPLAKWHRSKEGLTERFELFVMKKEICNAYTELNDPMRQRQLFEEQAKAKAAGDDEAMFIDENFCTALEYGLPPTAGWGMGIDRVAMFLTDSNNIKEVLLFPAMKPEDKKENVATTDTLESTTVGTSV

binding result [1] | binding result [2] | binding result [3] | binding result [4] | binding result [5] | binding result [6] | binding result [7] | Kd [8] | Binder
no binding (tested: 500 ng/ml) | no binding (tested: 500 ng/ml) | no binding (tested: 500 ng/ml) | no binding (tested: 500 ng/ml) | no binding (tested: 500 ng/ml) | no binding (tested: 500 ng/ml) | no binding | 5.42 nM | 1E8 항체 (anti-MRS monoclonal antibody 1E8) (antibody, mouse IgG2a, kappa, V domains shown, Mouse monoclonal from hybridoma 1E8 (immunogen MRS-AIMP3 co-purified protein); also called 1E8 IgG; 1E8 antibody) VH: DVKLQESGPGLVNPSQSLSLTCTVTGYSITSDYAWNWIRQFPGNKLEWMGYISYSGRTSYKSSLKSRISITRDTSKNQFFLELNSVTTEDTATYYCARDYGNFVGYFDVWGAGTTVTVSS VL: DIVMTQSPSSLAVSVGEKVTMSCKSSQSLLYSSNQKNYLAWYQQKPGQSPKLLIYWASTRESGVPDRFTGSGSGTEFTLTISSVKAEDLAVYYCQQYYSYPTFGGGTKLEIKA
no binding (tested: 500 ng/ml) | no binding (tested: 500 ng/ml) | no binding (tested: 500 ng/ml) | no binding (tested: 500 ng/ml) | no binding (tested: 500 ng/ml) | no binding (tested: 500 ng/ml) | no binding | 1.56 nM | 8A12 항체 (anti-MRS monoclonal antibody 8A12) (antibody, mouse IgG2a, kappa, V domains shown, Mouse monoclonal from hybridoma 8A12 (also named 34-8F2); also called 8A12 IgG; 8A12 antibody) VH: DVKLQESGPGLVKPSQSLSLTCTVTGYSITSEYAWTWIRQFPGNKLEWMGYINYNGNTNLNPSLKSRISIIRDTSKNQFFLQLNSVTTEDTATYYCARSLWPRGWFAYWGQGTLVTVSA VL: DIQMTQSPSSMYASLGERVTITCKASQDINSYLSWFQQKPGKSPKTLMYRANRLVDGVPSRFSGSGSGQDYSLTISSLEYEDMGIYYCLQYDEFPRTFGGGTKLEIKA
